From patent publication US20110263454A1, “Methods of Identifying Functional Characteristics of Promoters, Transcription Modifying Proteins and Transcription Modulating Agents” (Salk Institute for Biological Studies, priority 2008, published 2011) come the findings set out here.

For one experiment, the system named is mCAR promoter. The experiment is described as follows: NHR-promoter luciferase screen, mCAR promoter. It is filed as cell-based, mouse. To be noted: for luciferase activity normalized to lacZ activity and to a control, mCAR: mCAR promoter-luciferase, CV-1 cells, NHR +/- ligand, control = 1.00; for Luc. act., normalized to lacZ / Normalized Luc. act., normalized to control: mCAR promoter, HR/ligand component. The gist of the method: (§1)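 CV-1 cells were co-transfected with 50 ng NHR (homodimer or NHR/RXR heterodimer), 100 ng promoter-luciferase construct and 50 ng LacZ. Luciferase was normalized to LacZ and to a no-NHR/no-ligand control.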

In a further experiment the test system is mUCP2 promoter. The experiment in a line: NHR-promoter luciferase screen, mUCP2 promoter. Format: cell-based, mouse. To be noted: for Luc. act., normalized to lacZ / Normalized Luc. act., normalized to control: mUCP2 promoter reporter, co-transfected HR, with or without its ligand; for Normalized Luc. act., normalized to control: relative to control; for luciferase activity normalized to lacZ activity and to a control, mUCP2: mUCP2 promoter-luciferase, CV-1 cells, NHR +/- ligand, control = 1.00. The essentials:
as §1

Another experiment deals with mLeptin promoter. The experiment in a line: NHR-promoter luciferase screen, mLeptin promoter. It is filed as cell-based, mouse. To be noted: for Luc. act., normalized to lacZ / Normalized Luc. act., normalized to control: Table 7, mLeptin; for Results of assays of transcription factor (+/- ligand) with mLeptin: Table 6d, luciferase activity relative to control (control = 1.00). The essentials:
as §1

The next experiment has as its system mPOMC promoter. The experiment in a line: NHR-promoter luciferase screen, mPOMC promoter. It is filed as cell-based, mouse. The note with it: for Results of assays of transcription factor (+/- ligand) with mPOMC: Table 6d, luciferase activity relative to control (control = 1.00); for Luc. act., normalized to lacZ / Normalized Luc. act., normalized to control: mPOMC promoter, HR component with or without ligand; for Normalized Luc. act., normalized to control: relative to control. The gist of the method: as §1

A further experiment has as its system hIRF7 promoter. The experiment in a line: NHR-promoter luciferase screen, hIRF7 promoter. To be noted: for Normalized Luc. act., normalized to control / Luc. act., normalized to lacZ: IRF7 promoter reporter; for Normalized Luc. act., normalized to control: HR without or with its ligand, relative to control; for Luc. act., normalized to lacZ: hormone receptor (HR) without or with its ligand; for hIRF7 promoter reporter activity: transcription factor +/- ligand, control = 1.00. It is filed as cell-based, human. The gist of the method: as §1

A further experiment deals with hCYP3A4 promoter. The experiment is described as follows: NHR-promoter luciferase screen, hCYP3A4 promoter. To be noted: for Luc. act., normalized to lacZ / Normalized Luc. act., normalized to control: CYP3A4 promoter, HR/ligand component; for hCYP3A4 promoter reporter activity: transcription factor +/- ligand, control = 1.00. Format: cell-based, human. The gist of the method: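 CV-1 cells co-transfected with NHR homodimer or NHR/RXR heterodimer (pcDNA3.1, C-terminal V5H6 tag), promoter-luciferase construct and LacZ transfection control. Orphan receptors screened without ligand. Luciferase normalized to LacZ and to no-NHR/no-ligand control.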

B1: GCNF: Germ Cell Nuclear Factor (NR6A1, GCNF1), cDNA driver (protein, UniProt Q15406 1-480, looked up)
Nuclear receptor subfamily 6 …: MERDEPPPSGGGGGGGSAGFLEPPAALPPPPRNGFCQDELAELDPGTISVSDDRAEQRTCLICGDRATGLHYGIISCEGCKGFFKRSICNKRVYRCSRDKNCVMSRKQRNRCQYCRLLKCLQMGMNRKAIREDGMPGGRNKSIGPVQISEEEIERIMSGQEFEEEANHWSNHGDSDHSSPGNRASESNQPSPGSTLSSSRSVELNGFMAFREQYMGMSVPPHYQYIPHLFSYSGHSPLLPQQARSLDPQSYSLIHQLLSAEDLEPLGTPMLIEDGYAVTQAELFALLCRLADELLFRQIAWIKKLPFFCELSIKDYTCLLSSTWQELILLSSLTVYSKQIFGELADVTAKYSPSDEELHRFSDEGMEVIERLIYLYHKFHQLKVSNEEYACMKAINFLNQDIRGLTSASQLEQLNKRYWYICQDFTEYKYTHQPNRFPDLMMCLPEIRYIAGKMVNVPLEQLPLLFKVVLHSCKTSVGKE
For the molecule B1, in the experiment on mCAR promoter, the “luciferase activity normalized to lacZ activity and to a control, mCAR” value was 0.78; the “Luc. act., normalized to lacZ” value is recorded as 29.68; the “Normalized Luc. act., normalized to control” value came out at 0.8. Also, in the experiment with mUCP2 promoter, the “Luc. act., normalized to lacZ” value was determined as 139.9; the “Normalized Luc. act., normalized to control” value was determined as 1.3; the “luciferase activity normalized to lacZ activity and to a control, mUCP2” value worked out at 1.27. In the experiment with mLeptin promoter, the “Luc. act., normalized to lacZ” value came out at 1.5; the “Normalized Luc. act., normalized to control” value was 0.5; the “Results of assays of transcription factor (+/- ligand) with mLeptin” value is on record as 0.50. In the experiment with mPOMC promoter, the “Results of assays of transcription factor (+/- ligand) with mPOMC” value amounted to 0.61; the “Luc. act., normalized to lacZ” value turned out to be 42.0; the “Normalized Luc. act., normalized to control” value amounted to 0.6. Moreover, in the experiment with hIRF7 promoter, the “Normalized Luc. act., normalized to control” value is 1.1; the “Luc. act., normalized to lacZ” value turned out to be 28.4; the “hIRF7 promoter reporter activity” value amounted to 1.08. Also, in the experiment with hCYP3A4 promoter, the “Luc. act., normalized to lacZ” value is listed as 4.5; the “Normalized Luc. act., normalized to control” value came to 1.0; the “hCYP3A4 promoter reporter activity” value is reported as 1.02.

B2: DAX-1: DAX1 (NR0B1), cDNA driver (protein, UniProt P51843 1-470, looked up)
Nuclear receptor subfamily 0 …: MAGENHQWQGSILYNMLMSAKQTRAAPEAPETRLVDQCWGCSCGDEPGVGREGLLGGRNVALLYRCCFCGKDHPRQGSILYSMLTSAKQTYAAPKAPEATLGPCWGCSCGSDPGVGRAGLPGGRPVALLYRCCFCGEDHPRQGSILYSLLTSSKQTHVAPAAPEARPGGAWWDRSYFAQRPGGKEALPGGRATALLYRCCFCGEDHPQQGSTLYCVPTSTNQAQAAPEERPRAPWWDTSSGALRPVALKSPQVVCEAASAGLLKTLRFVKYLPCFQVLPLDQQLVLVRNCWASLLMLELAQDRLQFETVEVSEPSMLQKILTTRRRETGGNEPLPVPTLQHHLAPPAEARKVPSASQVQAIKCFLSKCWSLNISTKEYAYLKGTVLFNPDVPGLQCVKYIQGLQWGTQQILSEHTRMTHQGPHDRFIELNSTLFLLRFINANVIAELFFRPIIGTVSMDDMMLEMLCTKI
In the case of B2, in the experiment on mCAR promoter, the “luciferase activity normalized to lacZ activity and to a control, mCAR” value is listed as 0.96; the “Luc. act., normalized to lacZ” value stood at 36.74; the “Normalized Luc. act., normalized to control” value was found to be 1.0. Also, in the experiment with mUCP2 promoter, the “Luc. act., normalized to lacZ” value was 158.6; the “Normalized Luc. act., normalized to control” value came out at 1.4; the “luciferase activity normalized to lacZ activity and to a control, mUCP2” value was determined as 1.44. In addition, in the experiment on mLeptin promoter, the “Luc. act., normalized to lacZ” value was 2.5; the “Normalized Luc. act., normalized to control” value was found to be 0.9; the “Results of assays of transcription factor (+/- ligand) with mLeptin” value stood at 0.87. In the experiment on mPOMC promoter, the “Results of assays of transcription factor (+/- ligand) with mPOMC” value was 0.92; the “Luc. act., normalized to lacZ” value amounted to 63.4; the “Normalized Luc. act., normalized to control” value is listed as 0.9. Further, in the experiment on hIRF7 promoter, the “Normalized Luc. act., normalized to control” value was determined as 1.1; the “Luc. act., normalized to lacZ” value is recorded as 27.9; the “hIRF7 promoter reporter activity” value stood at 1.06. Further, in the experiment on hCYP3A4 promoter, the “Luc. act., normalized to lacZ” value amounted to 5.7; the “Normalized Luc. act., normalized to control” value was 1.3; the “hCYP3A4 promoter reporter activity” value amounted to 1.29.
